As usually defined, the Kd is the free concentration of one partner at which half of the binding sites on the other are occupied at equilibrium, for simple one-to-one binding. Low values mean tighter binding, high ones weaker binding.

The target in test [1] is C1q purified from pooled normal human sera (human) (UniProt P02746). Description: SPR kinetics, C1q immobilised on a CM5 chip, HMGB1 redox form as analyte in a concentration series, 1:1 fit.
Test [2] has as its target LAIR-1 on human monocytes (human) (UniProt Q6GTX8). Briefly: co-immunoprecipitation from human monocytes, IP anti-LAIR-1, blot anti-SHP-1; cells treated with C1q and HMGB1.
For test [3] the target is unchanged. Briefly: co-immunoprecipitation from human monocytes, IP anti-LAIR-1, blot anti-SHP-1; cells treated with HMGB1 alone.
Test [4] has the same target. Briefly: co-immunoprecipitation from human monocytes, IP anti-LAIR-1, blot anti-SHP-1; cells without C1q and without HMGB1.
Test [5] has the same target. Briefly: co-immunoprecipitation from human monocytes, IP anti-LAIR-1, blot anti-SHP-1; cells treated with C1q alone.

Chain of LAIR-1 on human monocytes (human) (Q6GTX8 22-287): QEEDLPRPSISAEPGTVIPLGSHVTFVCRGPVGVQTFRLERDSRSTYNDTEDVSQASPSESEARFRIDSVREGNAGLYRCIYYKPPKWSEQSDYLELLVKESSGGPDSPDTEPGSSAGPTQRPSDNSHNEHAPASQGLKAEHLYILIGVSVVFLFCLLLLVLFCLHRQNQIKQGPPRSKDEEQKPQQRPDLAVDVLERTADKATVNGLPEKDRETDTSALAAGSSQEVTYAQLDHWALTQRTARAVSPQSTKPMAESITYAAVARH
Chain of Oxidized HMGB1 (ligand) (P09429 whole entry): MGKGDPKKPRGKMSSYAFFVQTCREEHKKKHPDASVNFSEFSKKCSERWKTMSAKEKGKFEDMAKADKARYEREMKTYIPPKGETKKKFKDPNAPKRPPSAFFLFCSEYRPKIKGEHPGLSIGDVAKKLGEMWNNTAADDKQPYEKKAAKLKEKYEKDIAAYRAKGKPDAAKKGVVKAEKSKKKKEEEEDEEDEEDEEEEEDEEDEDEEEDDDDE
Chain of C1q purified from pooled normal human sera (human) (chain, as listed by the source, chain 1 of 3): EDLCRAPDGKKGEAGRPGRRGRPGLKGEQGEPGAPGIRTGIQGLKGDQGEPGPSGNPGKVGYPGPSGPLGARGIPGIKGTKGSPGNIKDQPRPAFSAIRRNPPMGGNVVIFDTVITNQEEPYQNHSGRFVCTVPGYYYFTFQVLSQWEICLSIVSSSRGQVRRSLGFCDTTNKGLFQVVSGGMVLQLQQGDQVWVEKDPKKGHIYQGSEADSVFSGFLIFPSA
Chain of C1q purified from pooled normal human sera (human) (P02746 28-253, chain 2 of 3): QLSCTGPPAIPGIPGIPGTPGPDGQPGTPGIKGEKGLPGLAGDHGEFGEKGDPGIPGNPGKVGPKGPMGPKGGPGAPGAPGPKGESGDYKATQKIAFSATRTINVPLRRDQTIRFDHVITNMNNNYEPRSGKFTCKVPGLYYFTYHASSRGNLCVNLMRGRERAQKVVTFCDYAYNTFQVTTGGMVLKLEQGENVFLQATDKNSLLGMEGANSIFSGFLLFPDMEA
Chain of C1q purified from pooled normal human sera (human) (P02747 29-245, chain 3 of 3): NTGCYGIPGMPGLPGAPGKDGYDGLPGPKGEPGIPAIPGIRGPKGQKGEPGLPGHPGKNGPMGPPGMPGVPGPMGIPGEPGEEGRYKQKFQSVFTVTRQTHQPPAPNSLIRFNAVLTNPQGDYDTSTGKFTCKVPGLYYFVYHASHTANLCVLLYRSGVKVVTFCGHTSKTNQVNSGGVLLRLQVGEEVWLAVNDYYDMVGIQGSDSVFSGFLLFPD

As for Oxidized HMGB1 (ligand), in test [1], the Kd worked out at 1.56 µM.
On to SHP-1 (from UniProt P29350 1-595), for which the signal intensity ratio (number under the SHP-1 blot) amounted to 4.4 in test [2], 0.7 in test [3], 1 in test [4] and 2.6 in test [5].
